Reference: patent US20070265350

What was measured:
His-Cdc42 = His-Cdc42 (UniProt P60953)
Chain of His-Cdc42 (P60953 whole entry, looked up): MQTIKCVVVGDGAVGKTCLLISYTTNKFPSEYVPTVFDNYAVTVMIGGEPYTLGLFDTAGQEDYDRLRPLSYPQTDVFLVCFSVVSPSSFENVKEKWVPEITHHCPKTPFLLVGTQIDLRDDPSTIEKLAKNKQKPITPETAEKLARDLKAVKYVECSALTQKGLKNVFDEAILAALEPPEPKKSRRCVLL

Chain of Demetalated bovine SOD1 (chain, as listed by the source): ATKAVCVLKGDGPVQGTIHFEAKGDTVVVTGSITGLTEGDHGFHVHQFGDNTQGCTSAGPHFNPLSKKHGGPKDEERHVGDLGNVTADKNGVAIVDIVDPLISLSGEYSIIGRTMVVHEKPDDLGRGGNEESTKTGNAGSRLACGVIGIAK
Chain of Bovine copper/zinc superoxide dismutase (SOD1), native (chain, as listed by the source): as above

| Substance | Cdc42 GTPase assay (rate of 32Pi release from γP32-GTP) (His-Cdc42) | Rac1 GTPase assay (rate of 32Pi release from γP32-GTP) (Histidine-tagged Rac1) |
| --- | --- | --- |
| Bovine copper/zinc superoxide dismutase (SOD1), native | The ability of SOD1 to inhibit GTP hydrolysis was also specific for Rac1 and was not observed with the closely related small GTPase Cdc42 |  |
| Demetalated bovine SOD1 |  | also did not inhibit Rac1 GTPase activity (FIG. 6B) |
